In doi:10.1101/2021.03.29.435803:

Target: HA-FBXW7 (UniProt Q8VBV4)
Assay: FLAG IP, HA immunoblot
Settings: reference: wild type

Substance | binding against the reference (sites T243,S247) | binding against the reference (sites T171,S175)
KLF2 (from UniProt Q60843) 2A C (T243A/S247A) | weaker | 
KLF2 (from UniProt Q60843) 2A N (T171A/S175A) |  | weaker
